Laboratory results reported in paper PMC2753297.
Substitutions are numbered along the chain they refer to. Names and notes keep the numbering of the source.

Target: T1, ADAM10 (immunoprecipitated with anti-ADAM10 from HEK293T cells), O14672
T1 chain: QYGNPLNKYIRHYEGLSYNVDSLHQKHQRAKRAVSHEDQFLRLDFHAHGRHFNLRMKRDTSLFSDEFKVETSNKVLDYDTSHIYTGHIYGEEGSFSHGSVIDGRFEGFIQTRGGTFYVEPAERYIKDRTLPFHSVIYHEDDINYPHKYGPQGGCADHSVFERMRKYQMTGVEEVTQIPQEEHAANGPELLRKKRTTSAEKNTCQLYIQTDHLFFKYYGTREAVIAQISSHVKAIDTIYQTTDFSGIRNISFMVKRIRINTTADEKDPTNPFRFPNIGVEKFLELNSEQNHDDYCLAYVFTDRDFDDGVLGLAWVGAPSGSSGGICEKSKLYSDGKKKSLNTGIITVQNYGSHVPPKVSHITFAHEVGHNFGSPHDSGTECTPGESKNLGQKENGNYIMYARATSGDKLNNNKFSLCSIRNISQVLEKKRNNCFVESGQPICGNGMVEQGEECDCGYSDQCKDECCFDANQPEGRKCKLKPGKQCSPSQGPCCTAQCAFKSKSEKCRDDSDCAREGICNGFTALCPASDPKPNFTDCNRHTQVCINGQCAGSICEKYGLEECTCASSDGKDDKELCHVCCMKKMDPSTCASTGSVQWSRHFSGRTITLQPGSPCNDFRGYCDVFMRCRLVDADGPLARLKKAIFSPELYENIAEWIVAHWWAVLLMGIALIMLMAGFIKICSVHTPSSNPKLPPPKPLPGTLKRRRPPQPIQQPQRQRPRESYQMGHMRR
Assay: co-immunoprecipitation (ADAM10 IP, EphA3 immunoblot, quantified)
Conditions: chain shown with the change; ephrin-A5-treated EphA3-transfected cells; n = 2 experiments; parent: est. 1.1; read off a plot; scale: ratio of EphA3 co-IP/lysate, EphA3[2YE] as internal reference

B1: Wt EphA3-GFP, P29320 Y596E; Y602E; K653M (protein)
chain: ELIPQPSNEVNLLDSKTIQGELGWISYPSHGWEEISGVDEHYTPIRTYQVCNVMDHSQNNWLRTNWVPRNSAQKIYVELKFTLRDCNSIPLVLGTCKETFNLYYMESDDDHGVKFREHQFTKIDTIAADESFTQMDLGDRILKLNTEIREVGPVNKKGFYLAFQDVGACVALVSVRVYFKKCPFTVKNLAMFPDTVPMDSQSLVEVRGSCVNNSKEEDPPRMYCSTEGEWLVPIGKCSCNAGYEERGFMCQACRPGFYKALDGNMKCAKCPPHSSTQEDGSMNCRCENNYFRADKDPPSMACTRPPSSPRNVISNINETSVILDWSWPLDTGGRKDVTFNIICKKCGWNIKQCEPCSPNVRFLPRQFGLTNTTVTVTDLLAHTNYTFEIDAVNGVSELSSPPRQFAAVSITTNQAAPSPVLTIKKDRTSRNSISLSWQEPEHPNGIILDYEVKYYEKQEQETSYTILRARGTNVTISSLKPDTIYVFQIRARTAAGYGTNSRKFEFETSPDSFSISGESSQVVMIAISAAVAIILLTVVIYVLIGRFCGYKSKHGADEKRLHFGNGHLKLPGLRTEVDPHTEEDPTQAVHEFAKELDATNISIDKVVGAGEFGEVCSGRLKLPSKKEISVAIMTLKVGYTEKQRRDFLGEASIMGQFDHPNIIRLEGVVTKSKPVMIVTEYMENGSLDSFLRKHDAQFTVIQLVGMLRGIASGMKYLSDMGYVHRDLAARNILINSNLVCKVSDFGLSRVLEDDPEAAYTTRGGKIPIRWTSPEAIAYRKFTSASDVWSYGIVLWEVMSYGERPYWEMSNQDVIKAVDEGYRLPPPMDCPAALYQLMLDCWQKDRNNRPKFEQIVSILDKLIRNPGSLKIITSAAARPSNLLLDQSNVDITTFRTTGDWLNGVWTAHCKEIFTGVEYSSCDTIAKISTDDMKKVGVTVVGPQKKIISSIKALETQSKNGPVPV
response: 0.42

B2: Wt EphA3-GFP, P29320 Y596E; Y602E (protein)
chain: B1 chain with M633K
response: 1
